# Assay results reported in article PMC8873925.
# Where a chain is given by its changes, count along the chain named.
# T1: CSTF2 RRM K96E (Homo sapiens, UniProt P33240 1-107, K96E)
# T1 sequence: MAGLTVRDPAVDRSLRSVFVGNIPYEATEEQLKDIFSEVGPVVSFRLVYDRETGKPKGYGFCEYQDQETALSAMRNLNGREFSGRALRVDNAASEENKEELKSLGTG
# T2: CSTF2 RRM D50A (Homo sapiens, UniProt P33240 1-107, D50A)
# T2 sequence: T1 sequence with D50A, E96K
# T3: CSTF2 RRM K98E (Homo sapiens, UniProt P33240 1-107, K98E)
# T3 sequence: T1 sequence with E96K, K98E
# T4: CSTF2 RRM F45A (Homo sapiens, UniProt P33240 1-107, F45A)
# T4 sequence: T1 sequence with F45A, E96K
# T5: CSTF2 RRM E26A (Homo sapiens, UniProt P33240 1-107, E26A)
# T5 sequence: T1 sequence with E26A, E96K
# T6: CSTF2 RRM D90I (Homo sapiens, UniProt P33240 1-107, D90I)
# T6 sequence: T1 sequence with D90I, E96K
# T7: CSTF2 (CstF-64) RRM wild-type (Homo sapiens, UniProt P33240 1-107)
# T7 sequence: T1 sequence with E96K
# T8: CSTF2 RRM A93E (Homo sapiens, UniProt P33240 1-107, A93E)
# T8 sequence: T1 sequence with A93E, E96K
# T9: CSTF2 RRM D90K (Homo sapiens, UniProt P33240 1-107, D90K)
# T9 sequence: T1 sequence with D90K, E96K
# Key:
# Experiment in all cases: ITC
# [1] = molecular target: T1, CSTF2 RRM K96E
# [2] = molecular target: T2, CSTF2 RRM D50A
# [3] = molecular target: T3, CSTF2 RRM K98E
# [4] = molecular target: T4, CSTF2 RRM F45A
# [5] = molecular target: T5, CSTF2 RRM E26A
# [6] = molecular target: T6, CSTF2 RRM D90I
# [7] = molecular target: T7, CSTF2 (CstF-64) RRM wild-type
# [8] = molecular target: T8, CSTF2 RRM A93E
# [9] = molecular target: T9, CSTF2 RRM D90K
binder,measurement,setting,value
AUUUUAUGUUUCAGGU (ssRNA) [SVL RNA],Kd,[1],38700 ± 4200 nM
same,Kd,[2],698 ± 60 nM
same,Kd,[3],8700 ± 110 nM
same,Kd,[4],1010 ± 50 nM
same,Kd,[5],520 ± 10 nM
same,Kd,[6],1260 ± 330 nM
same,Kd,[7],1520 ± 170 nM
same,Kd,[8],3880 ± 770 nM
same,Kd,[9],608 ± 10 nM
